In publication PMC9586977, “Structure of the pre-mRNA leakage 39-kDa protein reveals a single domain of integrated zf-C3HC and Rsm1 modules” (Scientific Reports, 2022):

B1: ScMlp1_(1–325), N-terminal fragment of Saccharomyces cerevisiae Myosin-like protein 1 (residues 1–325), homodimer (domain or fragment, UniProt Q02455 1-325, looked up)
chain: MSDHDTPMESIQNGENSDERLNAIASFFGCSLEQVKSFDGDVVKHLNDKLLQFNELKSENLKVTVSFDELKASSLKKIDGLKTEMENVIRENDKIRKERNDTFVKFESVENEKMKLSSELEFVKRKLDDLTEEKKETQSNQQRTLKILDERLKEIELVRVENNRSNSECKKLRSTIMDLETKQQGYITNDLNSRTELERKTQELTLLQSNNDWLEKELRSKNEQYLSYRQKTDKVILDIRNELNRLRNDFQMERTNNDVLKQKNNELSKSLQEKLLEIKGLSDSLNSEKQEFSAEMSLKQRLVDLLESQLNAVKEELNSIRELNT
notes: Cloned into NcoI/NotI of pET28a; hexahistidine tag removed with PreScission protease; Homodimer by SEC-MALS (~80 kDa; expected monomer 41 kDa); also called ΔC-ScMlp1; source: E. coli BL21(DE3)-RIL CodonPlus, purified (Ni-NTA, HiTrap Q, Superdex 200)

How the values were obtained:
[1] = biological target: the molecule itself; assay: SEC-MALS; 100 µl of 70 µM ScMlp1(1-325) on Superdex 200 10/300 GL, 0.5 mL/min, 25 °C; 500 mM NaCl, 20 mM HEPES-NaOH pH 7.5, 0.5 mM TCEP
[2] = biological target: B1; assay: ITC; 1.6 mM ScPml39(77-317) injected (2 µl every 180 s) into 350 µl of 70 µM ScMlp1(1-325) in the chamber; 4 °C; 500 mM NaCl, 20 mM HEPES pH 7.5, 0.5 mM TCEP; three independent measurements; conditions: both partners purified

Row | Kd [2] | stoichiometry N [2] | Binder | stoichiometry N [1]
1 | – | – | B1 | 2
2 | ~13 µM | 1 | ScPml39_(77–317), truncated Saccharomyces cerevisiae pre-mRNA leakage 39-kDa protein (residues 77–317) (domain or fragment, UniProt Q03760 77-317, looked up, Pml39 (pre-mRNA leakage 39-kDa protein), Saccharomyces cerevisiae, UniProtKB Q03760, residues 77-317 of 334; holds the zf-C3HC (79-189) and Rsm1 (190-311) modules; Cloned into NcoI/NotI of pET28a; hexahistidine tag removed with PreScission protease; also called truncated ScPml39; source: E. coli BL21(DE3)-RIL CodonPlus, purified (Ni-NTA, HiTrap SP, Superdex 200)) GFRLHDLRALLKRICSIQNYTRHVLIEWDVRWVNPLTLASKGWEPYQSASQSQVPFKCCCCHAIMTIPLLKNGDDVADYTMKLNEKIWNSNIIGNHLQKCPWRENQVDLNKEYYLSSQNLIREIERIHTEIDRIVSGSNEFSLKRNSSRIFHYLSEKEIQKLAFFFDCKDYSLVGLLLLGYTKFQKDDLVQCTACFHRASLKKLEYTEFNGHALWCRYYNKELLPTMLLELIGKEDKLITK | –
